Laboratory results as given in publication PMC9482650, “Quantitative fragmentomics allow affinity mapping of interactomes” (Nature Communications, 2022).

T1: RADIL, Q96JH8
T1 sequence (Q96JH8 971-1071, limits assumed, looked up): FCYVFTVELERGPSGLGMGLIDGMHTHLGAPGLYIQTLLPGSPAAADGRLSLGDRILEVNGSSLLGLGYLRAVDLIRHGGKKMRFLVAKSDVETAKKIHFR

T2: DLG3_3, Q92796
T2 sequence (Q92796 374-475, limits assumed, looked up): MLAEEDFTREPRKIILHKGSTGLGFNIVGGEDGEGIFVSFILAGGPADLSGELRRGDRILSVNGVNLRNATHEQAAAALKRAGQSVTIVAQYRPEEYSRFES

T3: DVL3, Q92997
T3 sequence (Q92997 244-331, limits assumed, looked up): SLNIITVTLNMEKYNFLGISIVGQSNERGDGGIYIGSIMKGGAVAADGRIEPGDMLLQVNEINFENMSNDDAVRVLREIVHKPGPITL

T4: LNX2_3, Q8N448
T4 sequence (Q8N448 463-564, limits assumed, looked up): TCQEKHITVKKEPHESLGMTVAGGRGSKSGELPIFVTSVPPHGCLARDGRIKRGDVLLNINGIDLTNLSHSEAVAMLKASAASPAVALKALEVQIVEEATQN

T5: GRIP1_5, Q9Y3R0
T5 sequence (Q9Y3R0 568-668, limits assumed, looked up): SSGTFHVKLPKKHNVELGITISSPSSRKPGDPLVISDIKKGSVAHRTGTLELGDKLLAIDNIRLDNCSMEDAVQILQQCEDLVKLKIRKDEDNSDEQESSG

T6: MPP2, Q14168
T6 sequence (Q14168 180-250, limits assumed, looked up): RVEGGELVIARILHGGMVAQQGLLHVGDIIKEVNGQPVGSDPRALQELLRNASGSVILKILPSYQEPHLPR

T7: LNX2_2, Q8N448
T7 sequence (Q8N448 334-432, limits assumed, looked up): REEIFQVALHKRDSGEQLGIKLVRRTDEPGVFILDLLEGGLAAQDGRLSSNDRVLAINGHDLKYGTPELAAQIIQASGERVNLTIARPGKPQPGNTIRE

T8: NHERF3_1, Q5T2W1
T8 sequence (Q5T2W1 4-100, limits assumed, looked up): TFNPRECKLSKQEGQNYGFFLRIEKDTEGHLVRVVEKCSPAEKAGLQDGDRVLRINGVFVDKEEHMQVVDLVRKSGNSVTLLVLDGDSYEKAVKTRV

T9: TIAM2, Q8IVF5
T9 sequence (Q8IVF5 885-986, limits assumed, looked up): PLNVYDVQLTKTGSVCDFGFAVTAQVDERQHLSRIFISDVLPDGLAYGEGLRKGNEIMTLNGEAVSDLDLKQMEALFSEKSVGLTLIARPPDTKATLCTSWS

T10: LIN7B, Q9HAP6
T10 sequence (Q9HAP6 88-185, limits assumed, looked up): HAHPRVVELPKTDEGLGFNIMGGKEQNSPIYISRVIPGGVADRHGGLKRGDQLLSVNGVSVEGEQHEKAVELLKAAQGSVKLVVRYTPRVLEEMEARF

T11: ARHGEF11, O15085
T11 sequence (O15085 42-136, limits assumed, looked up): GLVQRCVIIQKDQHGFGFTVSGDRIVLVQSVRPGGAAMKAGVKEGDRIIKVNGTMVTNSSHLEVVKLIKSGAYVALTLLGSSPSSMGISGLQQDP

T12: GRIP1_4, Q9Y3R0
T12 sequence (Q9Y3R0 467-571, limits assumed, looked up): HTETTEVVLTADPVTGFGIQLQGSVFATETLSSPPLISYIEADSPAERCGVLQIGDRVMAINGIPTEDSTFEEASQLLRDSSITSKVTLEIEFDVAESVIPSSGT


molecular target: IL16_3, Q14005; assay: holdup assay; parameters: key: below the threshold = too weak to quantify, mostly under pKd 3.1 to 4; conditions: plain residues with an end cap or a label only (N-terminal biotin on a linker: ado-ado)
Sequence (Q14005 1107-1207): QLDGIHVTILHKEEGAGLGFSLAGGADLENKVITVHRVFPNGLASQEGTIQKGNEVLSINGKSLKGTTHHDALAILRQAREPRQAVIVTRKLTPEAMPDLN

Binder	pKd
KPDKQEEFYA [SDC3, O75056]	below the threshold
RDYTQSSSSL [GRM5, P41594]	below the threshold

molecular target: T1, RADIL, Q96JH8; assay: holdup assay; parameters: key: below the threshold = too weak to quantify, mostly under pKd 3.1 to 4; conditions: plain residues with an end cap or a label only (N-terminal biotin on a linker: ado-ado)

Binder	pKd
KPDKQEEFYA [SDC3, O75056]	below the threshold
RDYTQSSSSL [GRM5, P41594]	below the threshold

molecular target: T2, DLG3_3, Q92796; assay: holdup assay; parameters: key: below the threshold = too weak to quantify, mostly under pKd 3.1 to 4; conditions: plain residues with an end cap or a label only (N-terminal biotin on a linker: ado-ado)

Binder	pKd
KPDKQEEFYA [SDC3, O75056]	below the threshold
RDYTQSSSSL [GRM5, P41594]	below the threshold

molecular target: LAP2, Q96RT1; assay: holdup assay; parameters: key: below the threshold = too weak to quantify, mostly under pKd 3.1 to 4; conditions: plain residues with an end cap or a label only (N-terminal biotin on a linker: ado-ado)
Sequence (Q96RT1 other isoform, or with tags, fused parts or gaps): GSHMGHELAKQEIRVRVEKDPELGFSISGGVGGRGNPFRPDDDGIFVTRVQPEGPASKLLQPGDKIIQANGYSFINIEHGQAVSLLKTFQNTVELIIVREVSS

Binder	pKd
KPDKQEEFYA [SDC3, O75056]	below the threshold
RDYTQSSSSL [GRM5, P41594]	below the threshold

molecular target: T3, DVL3, Q92997; assay: holdup assay; parameters: key: below the threshold = too weak to quantify, mostly under pKd 3.1 to 4; conditions: plain residues with an end cap or a label only (N-terminal biotin on a linker: ado-ado)

Binder	pKd
KPDKQEEFYA [SDC3, O75056]	below the threshold
RDYTQSSSSL [GRM5, P41594]	below the threshold

molecular target: MAST2, Q6P0Q8; assay: holdup assay; parameters: key: below the threshold = too weak to quantify, mostly under pKd 3.1 to 4; conditions: plain residues with an end cap or a label only (N-terminal biotin on a linker: ado-ado)
Sequence (Q6P0Q8 1099-1202): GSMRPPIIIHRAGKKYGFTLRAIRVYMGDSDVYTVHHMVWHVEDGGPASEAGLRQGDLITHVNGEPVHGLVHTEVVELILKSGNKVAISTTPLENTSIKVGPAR

Binder	pKd
KPDKQEEFYA [SDC3, O75056]	4.17
RDYTQSSSSL [GRM5, P41594]	5.15

molecular target: T4, LNX2_3, Q8N448; assay: holdup assay; parameters: key: below the threshold = too weak to quantify, mostly under pKd 3.1 to 4; conditions: plain residues with an end cap or a label only (N-terminal biotin on a linker: ado-ado)

Binder	pKd
KPDKQEEFYA [SDC3, O75056]	below the threshold
RDYTQSSSSL [GRM5, P41594]	below the threshold

molecular target: T5, GRIP1_5, Q9Y3R0; assay: holdup assay; parameters: key: below the threshold = too weak to quantify, mostly under pKd 3.1 to 4; conditions: plain residues with an end cap or a label only (N-terminal biotin on a linker: ado-ado)

Binder	pKd
KPDKQEEFYA [SDC3, O75056]	below the threshold
RDYTQSSSSL [GRM5, P41594]	below the threshold

molecular target: GIPC2, Q8TF65; assay: holdup assay; parameters: key: below the threshold = too weak to quantify, mostly under pKd 3.1 to 4; conditions: plain residues with an end cap or a label only (N-terminal biotin on a linker: ado-ado)
Sequence (Q8TF65 112-203): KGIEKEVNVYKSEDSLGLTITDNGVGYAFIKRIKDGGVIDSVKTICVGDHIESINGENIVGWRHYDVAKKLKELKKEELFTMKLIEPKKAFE

Binder	pKd
KPDKQEEFYA [SDC3, O75056]	below the threshold
RDYTQSSSSL [GRM5, P41594]	below the threshold

molecular target: T6, MPP2, Q14168; assay: holdup assay; parameters: key: below the threshold = too weak to quantify, mostly under pKd 3.1 to 4; conditions: plain residues with an end cap or a label only (N-terminal biotin on a linker: ado-ado)

Binder	pKd
KPDKQEEFYA [SDC3, O75056]	below the threshold
RDYTQSSSSL [GRM5, P41594]	below the threshold

molecular target: T7, LNX2_2, Q8N448; assay: holdup assay; parameters: key: below the threshold = too weak to quantify, mostly under pKd 3.1 to 4; conditions: plain residues with an end cap or a label only (N-terminal biotin on a linker: ado-ado)

Binder	pKd
KPDKQEEFYA [SDC3, O75056]	below the threshold
RDYTQSSSSL [GRM5, P41594]	below the threshold

molecular target: Inadl_2, Q8NI35; assay: holdup assay; parameters: key: below the threshold = too weak to quantify, mostly under pKd 3.1 to 4; conditions: plain residues with an end cap or a label only (N-terminal biotin on a linker: ado-ado)
Sequence (Q8NI35 238-335): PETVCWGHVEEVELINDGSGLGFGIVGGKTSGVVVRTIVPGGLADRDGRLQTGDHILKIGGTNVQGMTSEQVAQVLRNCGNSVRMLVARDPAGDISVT

Binder	pKd
KPDKQEEFYA [SDC3, O75056]	below the threshold
RDYTQSSSSL [GRM5, P41594]	below the threshold

molecular target: PARD3_3, Q8TEW0; assay: holdup assay; parameters: key: below the threshold = too weak to quantify, mostly under pKd 3.1 to 4; conditions: plain residues with an end cap or a label only (N-terminal biotin on a linker: ado-ado)
Sequence (Q8TEW0 582-685): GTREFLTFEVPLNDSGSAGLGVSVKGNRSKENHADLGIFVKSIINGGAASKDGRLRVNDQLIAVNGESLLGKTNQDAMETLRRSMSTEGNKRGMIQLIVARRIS

Binder	pKd
KPDKQEEFYA [SDC3, O75056]	below the threshold
RDYTQSSSSL [GRM5, P41594]	below the threshold

molecular target: MAGI2_2, Q86UL8; assay: holdup assay; parameters: key: below the threshold = too weak to quantify, mostly under pKd 3.1 to 4; conditions: plain residues with an end cap or a label only (N-terminal biotin on a linker: ado-ado)
Sequence (Q86UL8 410-522): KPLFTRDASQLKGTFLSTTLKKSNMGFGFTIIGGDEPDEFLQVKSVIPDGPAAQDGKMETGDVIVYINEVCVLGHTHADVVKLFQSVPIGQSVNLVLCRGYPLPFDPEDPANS

Binder	pKd
KPDKQEEFYA [SDC3, O75056]	below the threshold
RDYTQSSSSL [GRM5, P41594]	below the threshold

molecular target: T8, NHERF3_1, Q5T2W1; assay: holdup assay; parameters: key: below the threshold = too weak to quantify, mostly under pKd 3.1 to 4; conditions: plain residues with an end cap or a label only (N-terminal biotin on a linker: ado-ado)

Binder	pKd
KPDKQEEFYA [SDC3, O75056]	below the threshold
RDYTQSSSSL [GRM5, P41594]	5.02

molecular target: GRIP2_5, Q9C0E4; assay: holdup assay; parameters: key: below the threshold = too weak to quantify, mostly under pKd 3.1 to 4; conditions: plain residues with an end cap or a label only (N-terminal biotin on a linker: ado-ado)
Sequence (Q9C0E4 544-642): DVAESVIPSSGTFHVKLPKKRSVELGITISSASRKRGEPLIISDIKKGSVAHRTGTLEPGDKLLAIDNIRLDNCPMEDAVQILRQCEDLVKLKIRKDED

Binder	pKd
KPDKQEEFYA [SDC3, O75056]	below the threshold
RDYTQSSSSL [GRM5, P41594]	below the threshold

molecular target: T9, TIAM2, Q8IVF5; assay: holdup assay; parameters: key: below the threshold = too weak to quantify, mostly under pKd 3.1 to 4; conditions: plain residues with an end cap or a label only (N-terminal biotin on a linker: ado-ado)

Binder	pKd
KPDKQEEFYA [SDC3, O75056]	4.04
RDYTQSSSSL [GRM5, P41594]	3.8

molecular target: NOS1, P29475; assay: holdup assay; parameters: key: below the threshold = too weak to quantify, mostly under pKd 3.1 to 4; conditions: plain residues with an end cap or a label only (N-terminal biotin on a linker: ado-ado)
Sequence (P29475 9-101): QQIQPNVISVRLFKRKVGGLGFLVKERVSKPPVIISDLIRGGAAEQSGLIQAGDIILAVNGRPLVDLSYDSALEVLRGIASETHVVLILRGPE

Binder	pKd
KPDKQEEFYA [SDC3, O75056]	below the threshold
RDYTQSSSSL [GRM5, P41594]	below the threshold

molecular target: T10, LIN7B, Q9HAP6; assay: holdup assay; parameters: key: below the threshold = too weak to quantify, mostly under pKd 3.1 to 4; conditions: plain residues with an end cap or a label only (N-terminal biotin on a linker: ado-ado)

Binder	pKd
KPDKQEEFYA [SDC3, O75056]	3.78
RDYTQSSSSL [GRM5, P41594]	3.52

molecular target: TJP2_1, Q9UDY2; assay: holdup assay; parameters: key: below the threshold = too weak to quantify, mostly under pKd 3.1 to 4; conditions: plain residues with an end cap or a label only (N-terminal biotin on a linker: ado-ado)
Sequence (Q9UDY2 24-128): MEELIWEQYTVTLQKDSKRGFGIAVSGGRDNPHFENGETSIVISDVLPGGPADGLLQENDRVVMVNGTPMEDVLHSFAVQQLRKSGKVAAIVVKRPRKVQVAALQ

Binder	pKd
KPDKQEEFYA [SDC3, O75056]	below the threshold
RDYTQSSSSL [GRM5, P41594]	below the threshold

molecular target: T11, ARHGEF11, O15085; assay: holdup assay; parameters: key: below the threshold = too weak to quantify, mostly under pKd 3.1 to 4; conditions: plain residues with an end cap or a label only (N-terminal biotin on a linker: ado-ado)

Binder	pKd
KPDKQEEFYA [SDC3, O75056]	below the threshold
RDYTQSSSSL [GRM5, P41594]	3.79

molecular target: FRMPD4, Q14CM0; assay: holdup assay; parameters: key: below the threshold = too weak to quantify, mostly under pKd 3.1 to 4; conditions: plain residues with an end cap or a label only (N-terminal biotin on a linker: ado-ado)
Sequence (Q14CM0 67-160): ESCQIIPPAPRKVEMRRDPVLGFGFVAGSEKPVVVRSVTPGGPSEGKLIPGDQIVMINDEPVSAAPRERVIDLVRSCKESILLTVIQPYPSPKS

Binder	pKd
KPDKQEEFYA [SDC3, O75056]	3.49
RDYTQSSSSL [GRM5, P41594]	3.65

molecular target: DLG1_2, Q12959; assay: holdup assay; parameters: key: below the threshold = too weak to quantify, mostly under pKd 3.1 to 4; conditions: plain residues with an end cap or a label only (N-terminal biotin on a linker: ado-ado)
Sequence (Q12959 314-412): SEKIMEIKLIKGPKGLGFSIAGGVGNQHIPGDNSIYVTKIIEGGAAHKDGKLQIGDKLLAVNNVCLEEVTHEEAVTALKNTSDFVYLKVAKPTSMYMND

Binder	pKd
KPDKQEEFYA [SDC3, O75056]	below the threshold
RDYTQSSSSL [GRM5, P41594]	below the threshold

molecular target: SNX27, Q96L92; assay: holdup assay; parameters: key: below the threshold = too weak to quantify, mostly under pKd 3.1 to 4; conditions: plain residues with an end cap or a label only (N-terminal biotin on a linker: ado-ado)

Binder	pKd
KPDKQEEFYA [SDC3, O75056]	below the threshold
RDYTQSSSSL [GRM5, P41594]	4.25

molecular target: IL16_4, Q14005; assay: holdup assay; parameters: key: below the threshold = too weak to quantify, mostly under pKd 3.1 to 4; conditions: plain residues with an end cap or a label only (N-terminal biotin on a linker: ado-ado)
Sequence (Q14005 1229-1329): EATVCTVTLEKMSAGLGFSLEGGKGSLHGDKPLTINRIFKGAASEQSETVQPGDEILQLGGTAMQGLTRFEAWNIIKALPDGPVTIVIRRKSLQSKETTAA

Binder	pKd
KPDKQEEFYA [SDC3, O75056]	below the threshold
RDYTQSSSSL [GRM5, P41594]	below the threshold

molecular target: T12, GRIP1_4, Q9Y3R0; assay: holdup assay; parameters: key: below the threshold = too weak to quantify, mostly under pKd 3.1 to 4; conditions: plain residues with an end cap or a label only (N-terminal biotin on a linker: ado-ado)

Binder	pKd
KPDKQEEFYA [SDC3, O75056]	below the threshold
RDYTQSSSSL [GRM5, P41594]	below the threshold
